Reference: the supplement of paper PMC7125110
± gives the standard error. For some of these results: Variants at the floor of the assay were thinned out.

B1: glmS ribozyme (parent)
chain: AUAAAAGCGCCAGAACUACAGAAAUGUAGUUGACGAGGAGGAGGUUUAUCGAAUUUUCGGCGGAUGCCUCCAAA

Assays:
Conditions in all cases: with glucosamine-6-phosphate
glucosamine-6-phosphate [1] = variants of: B1; assay: kcat; higher = faster cleavage; RNA array
Method in brief: (§1)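 Glucosamine-6-phosphate (40 μM to 10 mM) in HEPES/KCl/Mg(OAc)2 buffer was flowed over sequenced MiSeq chips, and tiles were imaged over ~14 h. Barcoded ribozyme variants there had been transcribed in situ by E. coli RNA polymerase and were tracked through a hybridised Cy3 probe at 37 °C. One- or two-exponential decay fits to per-tile medians, normalised to baseline and to non-cleaving reference variants, gave kobs. kcat and KM came from weighted Michaelis–Menten fits across concentrations.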

glucosamine-6-phosphate [2] = variants of: B1; assay: self-cleavage kobs at 160 uM GlcN6P; higher = faster cleavage; RNA array
Method in brief: as §1

glucosamine-6-phosphate [3] = variants of: B1; assay: self-cleavage kobs at 640 uM GlcN6P; higher = faster cleavage; RNA array
Method in brief: as §1

glucosamine-6-phosphate [4] = variants of: B1; assay: self-cleavage kobs at 2500 uM GlcN6P; higher = faster cleavage; RNA array
Method in brief: as §1

glucosamine-6-phosphate [5] = variants of: B1; assay: self-cleavage kobs at 10000 uM GlcN6P; higher = faster cleavage; RNA array
Method in brief: as §1

glucosamine-6-phosphate [6] = variants of: B1; assay: KM; higher = weaker cofactor use; RNA array
Method in brief: as §1

glucosamine-6-phosphate [7] = variants of: B1; assay: self-cleavage kobs at 40 uM GlcN6P; higher = faster cleavage; RNA array
Method in brief: as §1

C16A C71G was tested, and the kcat (glucosamine-6-phosphate [1]) was 6.32e-05 ± 9.8e-06 s⁻¹, the “self-cleavage kobs at 160 uM GlcN6P” value (glucosamine-6-phosphate [2]) was 3.88e-05 ± 1.5e-05 s⁻¹ and the “self-cleavage kobs at 640 uM GlcN6P” value (glucosamine-6-phosphate [3]) was 7.21e-05 ± 1.7e-05 s⁻¹. For the same variant, the “self-cleavage kobs at 2500 uM GlcN6P” value (glucosamine-6-phosphate [4]) was 9.36e-05 ± 1.5e-05 s⁻¹ and the “self-cleavage kobs at 10000 uM GlcN6P” value (glucosamine-6-phosphate [5]) was 5.48e-05 ± 6.9e-06 s⁻¹.

With A14C U49G the kcat (glucosamine-6-phosphate [1]) was 0.000151 ± 5.2e-06 s⁻¹, the KM (glucosamine-6-phosphate [6]) was 6690 ± 570 µM and the “self-cleavage kobs at 10000 uM GlcN6P” value (glucosamine-6-phosphate [5]) was 9.07e-05 ± 1.3e-05 s⁻¹.

For A53C C70A, the kcat (glucosamine-6-phosphate [1]) was 5.94e-05 ± 1.5e-05 s⁻¹, the “self-cleavage kobs at 40 uM GlcN6P” value (glucosamine-6-phosphate [7]) was under 1e-05 s⁻¹ and the “self-cleavage kobs at 2500 uM GlcN6P” value (glucosamine-6-phosphate [4]) was 6.85e-05 ± 1.7e-05 s⁻¹. The “self-cleavage kobs at 10000 uM GlcN6P” value (glucosamine-6-phosphate [5]) was 5.03e-05 ± 1.1e-05 s⁻¹.

For G13C U45G, the kcat (glucosamine-6-phosphate [1]) was 3.74e-05 ± 3.6e-06 s⁻¹, the “self-cleavage kobs at 40 uM GlcN6P” value (glucosamine-6-phosphate [7]) was under 1e-05 s⁻¹ and the “self-cleavage kobs at 10000 uM GlcN6P” value (glucosamine-6-phosphate [5]) was 3.22e-05 ± 1.2e-05 s⁻¹.

In the case of C16G G32U, the kcat (glucosamine-6-phosphate [1]) is reported as 0.000915 ± 8.9e-05 s⁻¹, the KM (glucosamine-6-phosphate [6]) is reported as 3800 ± 700 µM and the “self-cleavage kobs at 640 uM GlcN6P” value (glucosamine-6-phosphate [3]) is reported as 0.000144 ± 3.7e-05 s⁻¹. The “self-cleavage kobs at 2500 uM GlcN6P” value (glucosamine-6-phosphate [4]) was 0.00032 ± 8.7e-05 s⁻¹ and the “self-cleavage kobs at 10000 uM GlcN6P” value (glucosamine-6-phosphate [5]) was 0.00068 ± 0.00011 s⁻¹.

In the case of G43U U54G, the kcat (glucosamine-6-phosphate [1]) is reported as 8.63e-05 ± 2.8e-05 s⁻¹, the “self-cleavage kobs at 2500 uM GlcN6P” value (glucosamine-6-phosphate [4]) is reported as 6.89e-05 ± 1.8e-05 s⁻¹ and the “self-cleavage kobs at 10000 uM GlcN6P” value (glucosamine-6-phosphate [5]) is reported as 6.53e-05 ± 2.3e-05 s⁻¹.

In the case of U65G, the kcat (glucosamine-6-phosphate [1]) is reported as 0.00543 ± 0.0002 s⁻¹, the KM (glucosamine-6-phosphate [6]) is reported as 3670 ± 190 µM and the “self-cleavage kobs at 40 uM GlcN6P” value (glucosamine-6-phosphate [7]) is reported as 5.85e-05 ± 1.3e-06 s⁻¹. For the same variant, the “self-cleavage kobs at 160 uM GlcN6P” value (glucosamine-6-phosphate [2]) was 0.000217 ± 7.2e-06 s⁻¹, the “self-cleavage kobs at 640 uM GlcN6P” value (glucosamine-6-phosphate [3]) was 0.000813 ± 1.9e-05 s⁻¹ and the “self-cleavage kobs at 2500 uM GlcN6P” value (glucosamine-6-phosphate [4]) was 0.00237 ± 8.3e-05 s⁻¹. The “self-cleavage kobs at 10000 uM GlcN6P” value (glucosamine-6-phosphate [5]) was 0.00393 ± 7.2e-05 s⁻¹.

For C16G, the kcat (glucosamine-6-phosphate [1]) was 0.0106 ± 0.0035 s⁻¹, the KM (glucosamine-6-phosphate [6]) was 2880 ± 1100 µM and the “self-cleavage kobs at 40 uM GlcN6P” value (glucosamine-6-phosphate [7]) was 0.000174 ± 3.5e-06 s⁻¹. For the same variant, the “self-cleavage kobs at 160 uM GlcN6P” value (glucosamine-6-phosphate [2]) was 0.000423 ± 1.5e-05 s⁻¹, the “self-cleavage kobs at 640 uM GlcN6P” value (glucosamine-6-phosphate [3]) was 0.00182 ± 8.5e-05 s⁻¹ and the “self-cleavage kobs at 2500 uM GlcN6P” value (glucosamine-6-phosphate [4]) was 0.01 ± 0.0036 s⁻¹. For the same variant, the “self-cleavage kobs at 10000 uM GlcN6P” value (glucosamine-6-phosphate [5]) was 0.0085 ± 0.0003 s⁻¹.

G44C C70U was tested, and the kcat (glucosamine-6-phosphate [1]) was under 1e-05 s⁻¹ and the “self-cleavage kobs at 40 uM GlcN6P” value (glucosamine-6-phosphate [7]) was under 1e-05 s⁻¹.

For A14U G38C, the kcat (glucosamine-6-phosphate [1]) was under 1e-05 s⁻¹, the “self-cleavage kobs at 40 uM GlcN6P” value (glucosamine-6-phosphate [7]) was under 1e-05 s⁻¹ and the “self-cleavage kobs at 640 uM GlcN6P” value (glucosamine-6-phosphate [3]) was under 1e-05 s⁻¹. The “self-cleavage kobs at 2500 uM GlcN6P” value (glucosamine-6-phosphate [4]) was under 1e-05 s⁻¹ and the “self-cleavage kobs at 10000 uM GlcN6P” value (glucosamine-6-phosphate [5]) was under 1e-05 s⁻¹.

With C10U A14G the kcat (glucosamine-6-phosphate [1]) was 0.000181 ± 2.4e-05 s⁻¹, the KM (glucosamine-6-phosphate [6]) was 2130 ± 650 µM and the “self-cleavage kobs at 640 uM GlcN6P” value (glucosamine-6-phosphate [3]) was 5.02e-05 ± 7.8e-06 s⁻¹. For the same variant, the “self-cleavage kobs at 2500 uM GlcN6P” value (glucosamine-6-phosphate [4]) was 8.95e-05 ± 8.6e-06 s⁻¹ and the “self-cleavage kobs at 10000 uM GlcN6P” value (glucosamine-6-phosphate [5]) was 0.000159 ± 1.6e-05 s⁻¹.

G44A U65A was tested, and the kcat (glucosamine-6-phosphate [1]) was 0.000154 ± 9.6e-06 s⁻¹, the KM (glucosamine-6-phosphate [6]) was 828 ± 240 µM and the “self-cleavage kobs at 640 uM GlcN6P” value (glucosamine-6-phosphate [3]) was 6.51e-05 ± 2.8e-05 s⁻¹. The “self-cleavage kobs at 2500 uM GlcN6P” value (glucosamine-6-phosphate [4]) was 0.000133 ± 3.6e-05 s⁻¹ and the “self-cleavage kobs at 10000 uM GlcN6P” value (glucosamine-6-phosphate [5]) was 0.000139 ± 2e-05 s⁻¹.

C10U G60A C71U was tested, and the kcat (glucosamine-6-phosphate [1]) was 1.14e-05 ± 1.1e-06 s⁻¹ and the KM (glucosamine-6-phosphate [6]) was 2050 ± 570 µM.

A12U A14C was tested, and the kcat (glucosamine-6-phosphate [1]) was 0.00505 ± 0.0013 s⁻¹, the KM (glucosamine-6-phosphate [6]) was 1630 ± 560 µM and the “self-cleavage kobs at 40 uM GlcN6P” value (glucosamine-6-phosphate [7]) was 0.000142 ± 1.3e-05 s⁻¹. The “self-cleavage kobs at 160 uM GlcN6P” value (glucosamine-6-phosphate [2]) was 0.000429 ± 6.9e-05 s⁻¹, the “self-cleavage kobs at 640 uM GlcN6P” value (glucosamine-6-phosphate [3]) was 0.00117 ± 0.00016 s⁻¹ and the “self-cleavage kobs at 2500 uM GlcN6P” value (glucosamine-6-phosphate [4]) was 0.00261 ± 0.00038 s⁻¹. The “self-cleavage kobs at 10000 uM GlcN6P” value (glucosamine-6-phosphate [5]) was 0.00546 ± 0.00066 s⁻¹.

With A15U A39C the kcat (glucosamine-6-phosphate [1]) was 0.00112 ± 0.00025 s⁻¹, the KM (glucosamine-6-phosphate [6]) was 1960 ± 980 µM and the “self-cleavage kobs at 40 uM GlcN6P” value (glucosamine-6-phosphate [7]) was 3.4e-05 ± 6.3e-06 s⁻¹. The “self-cleavage kobs at 640 uM GlcN6P” value (glucosamine-6-phosphate [3]) was 0.000287 ± 3.8e-05 s⁻¹, the “self-cleavage kobs at 2500 uM GlcN6P” value (glucosamine-6-phosphate [4]) was 0.000499 ± 5.7e-05 s⁻¹ and the “self-cleavage kobs at 10000 uM GlcN6P” value (glucosamine-6-phosphate [5]) was 0.00102 ± 7.3e-05 s⁻¹.

G37A G59U C68G gave a kcat (glucosamine-6-phosphate [1]) of under 1e-05 s⁻¹.

In the case of A12G G62C, the kcat (glucosamine-6-phosphate [1]) is reported as under 1e-05 s⁻¹, the KM (glucosamine-6-phosphate [6]) is reported as 151 ± 74 µM and the “self-cleavage kobs at 10000 uM GlcN6P” value (glucosamine-6-phosphate [5]) is reported as under 1e-05 s⁻¹.
